Measured values from the supplement of paper PMC9732359.
± gives the uncertainty stated by the source.

Test: protein stability index of a GFP-peptide fusion (yeast GPS) (PSI 1-4); higher = more stable; sorted into four equal gates, so the index is relative within each strain
In short: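 Mid-log yeast cultures in leucine-free medium, carrying a pooled plasmid library, were sorted into four equal gates by their GFP/Cherry fluorescence ratio. Each plasmid expressed Cherry along with GFP fused upstream of a tiled 17-residue yeast protein peptide. Plasmids recovered from each gate were PCR-amplified and Illumina-sequenced, with reads assigned to strains by barcodes. The protein stability index was obtained by summing each gate's read frequency weighted by its gate number.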

Sequence	protein stability index (doa10∆)	protein stability index (pdr5∆)	protein stability index (san1∆)	protein stability index (ubr1∆)
CHLYSQRMHAIHEIDER [NNF1]	1.24 ± 0.082	1.64 ± 0.065	1.8 ± 0.1	1.63 ± 0.073
CHSKLRGQQVENPTDNF [GRR1]	2.86 ± 0.22			
CIECQPKAMTDTDNECV [HRT1]	3.26 ± 0.097	3.25 ± 0.093	2.94 ± 0.11	3.32 ± 0.062
CINKWIKTRDACPLDNQ [HRT1]	3.16 ± 0.093	3.03 ± 0.079	2.72 ± 0.078	3.17 ± 0.05
CKRELAFVKQKNDSLEK [YIL149C/MLP2]	3.26 ± 0.16	3.33 ± 0.17		3.43 ± 0.19
CLDRCKEQYNRYRDLMI [MTR3]	2.64 ± 0.074	2.62 ± 0.046	2.69 ± 0.054	2.88 ± 0.063
CNNINKGLKENDVAVEK [BRR2]	3.17 ± 0.12	3.68 ± 0.18	3.25 ± 0.09	3.43 ± 0.12
CQLQNSDNSEEEEVDID [RRP43]	3.2 ± 0.077	3.22 ± 0.065	3.02 ± 0.08	3.13 ± 0.056
CRELHNKHLTTLVEIFL [SSN3]	1.59 ± 0.04	2.03 ± 0.045	1.82 ± 0.065	1.7 ± 0.04
CRLFFTELASKDNAIYN [YCS4]	1.3 ± 0.077	1.51 ± 0.055	1.1 ± 0.16	1.32 ± 0.047
CYEKVLESINEGNQIIV [BRR2]	3.09 ± 0.11	2.59 ± 0.11	2.05 ± 0.093	2.34 ± 0.1
DAAAEKRNGDEVYTLVD [ARP7]	3.28 ± 0.074	3.35 ± 0.063	3.42 ± 0.046	3.06 ± 0.056
DAFNMLSLTTVPCDRIE [SNF6]	2.18 ± 0.05	2.57 ± 0.064	2.43 ± 0.091	2.4 ± 0.069
DAFRVHICGICGLMTVI [RPB2]	1.33 ± 0.084	1.43 ± 0.095	1.34 ± 0.16	1.43 ± 0.062
DAGKLVYVTGGRNLGRI [RPS4A]	2.76 ± 0.1	1.99 ± 0.12	3.08 ± 0.17	1.89 ± 0.28
DAIWSLVFQLAKNFSAQ [SRB8]	2.08 ± 0.049	2.56 ± 0.053	2.4 ± 0.054	2.61 ± 0.041
DANPSSQIIARNEEILR [SMC2]	2.94 ± 0.08	2.79 ± 0.083	3.21 ± 0.076	2.76 ± 0.11
DDALHAKKLPNGNWEVG [DIS3]	3.3 ± 0.098	3.12 ± 0.083	2.94 ± 0.057	3.05 ± 0.057
DDDDEDDDEIVMPVPNV [SKP1]	3.3 ± 0.064	3.06 ± 0.099	3.08 ± 0.11	3.21 ± 0.11
DDDEVDYSEIQRSRRKF [DSN1]	2.66 ± 0.1	3.66 ± 0.23	3.04 ± 0.2	2.75 ± 0.16
DDEDDEHNPTIVGGLYY [AAR2]	3.22 ± 0.12	3.14 ± 0.079	3.17 ± 0.064	3.4 ± 0.1
DDEDEDDSDNVMSSDDE [PRE10]	3.17 ± 0.094	3.46 ± 0.12	3.44 ± 0.15	3.12 ± 0.17
DDENNPSHYPHPYEYEI [RRP6]	3.03 ± 0.064	2.89 ± 0.063	2.74 ± 0.054	2.89 ± 0.029
DDFFKELAKEAKKSTTI [ESC2]	3.17 ± 0.12	3.09 ± 0.12	2.97 ± 0.094	3.36 ± 0.091
DDGDDEDLLECLDRCKE [MTR3]	2.57 ± 0.097	3.08 ± 0.084	2.87 ± 0.085	2.77 ± 0.11
DDLEKTLDKKDSIPLRI [RPN9]		2.3 ± 0.14	2.94 ± 0.11	2.33 ± 0.11

Sequence	protein stability index (doa10∆)	protein stability index (pdr5∆)	protein stability index (san1∆)	protein stability index (ubr1∆)
DDMVEYEDGTPATTSQM [CYT1]		2.76 ± 0.14	3.02 ± 0.19	
DDNETENPNFWRQFGNR [GRR1]	3.17 ± 0.076	3.23 ± 0.056	3.31 ± 0.06	3.21 ± 0.056
DDTKNQDSMSKGTGEES [YGR119C/NUP57]	3.16 ± 0.077	3.14 ± 0.16	3.21 ± 0.082	3.42 ± 0.057
DDVKNILNAKYTKETYQ [RPN6]	3.26 ± 0.076	2.99 ± 0.066	3.08 ± 0.052	3.12 ± 0.064
DDVYRPAAESKIFTPNL [SNF5]	2.82 ± 0.085	3.09 ± 0.11		3.23 ± 0.19
DEAKDFIVSGTASDQLF [PUP3]	2.74 ± 0.089	2.83 ± 0.07	2.57 ± 0.096	2.92 ± 0.076
DEDDDQPMISPDNSIFG [SWI3]	3.22 ± 0.078	3.35 ± 0.083	3.2 ± 0.086	2.94 ± 0.088
DEDEDEDEDDDDDDDED [QCR6]	2.25 ± 0.039	1.96 ± 0.036	2.05 ± 0.047	1.98 ± 0.05
DEEMAVLTRMDEDRSKK [SNF2]	3.17 ± 0.071	2.66 ± 0.083	2.42 ± 0.092	2.57 ± 0.072
DEKKDSDSSKPAFSFGT [YJL041W/NSP1]	2.75 ± 0.076	2.49 ± 0.068	3.07 ± 0.067	2.97 ± 0.042
DELDAIGTKRFDSEKSG [RPT5]	2.46 ± 0.066	1.66 ± 0.058	2.25 ± 0.086	1.99 ± 0.057
DELVKLLLDNGFNMKKI [SRP68]			2.98 ± 0.24	3.52 ± 0.13
DEMYELTDPMTVMFFYH [DIB1]	2.69 ± 0.092	3.01 ± 0.11	2.83 ± 0.14	2.85 ± 0.11
DENKAGATSKPAFSFGA [YJL041W/NSP1]	3.15 ± 0.07	3.32 ± 0.068	3.33 ± 0.048	3.1 ± 0.061
DEVGRRSMLTVVRNMLA [YCG1]	1.54 ± 0.077	2.09 ± 0.079	3.01 ± 0.13	1.52 ± 0.069
DFDESLKYLDDLKAQFQ [RPN9]	3.02 ± 0.15	3.17 ± 0.075	3.12 ± 0.098	3.11 ± 0.081
DFIGHNSNINTLTASPD [ASC1]	2.83 ± 0.075	2.87 ± 0.052	2.87 ± 0.068	2.96 ± 0.039
DFLGVASTGSGKTLAFV [PRP28]	3.42 ± 0.26	3.05 ± 0.22	2.92 ± 0.22	3.31 ± 0.061
DFPHLTPKLQTQLSYLI [YCS4]	2.82 ± 0.043	2.88 ± 0.045	2.79 ± 0.044	2.67 ± 0.038
DFQIDGNIFELLSDTFE [RRI2]	2.04 ± 0.095	2.47 ± 0.077	2.95 ± 0.11	3.16 ± 0.17
DFRTRYIDIRTNNVLRK [MTW1]	2.45 ± 0.087	2.86 ± 0.21	2.43 ± 0.27	2.66 ± 0.14
DFTLIPRMASVFENYVK [CDC53]	3.15 ± 0.091	2.88 ± 0.06	2.71 ± 0.061	3.13 ± 0.081
DGHLRAPLKHGVGILYK [BRR2]	1.31 ± 0.055	2.33 ± 0.08	1.58 ± 0.2	1.26 ± 0.07
DGYQLFHAEPSGTFYRY [PUP2]	2.14 ± 0.11	1.6 ± 0.095	2.64 ± 0.062	1.5 ± 0.076
DHKYVCTFSMEPYHFIS [SRB8]	2.37 ± 0.061	2.03 ± 0.047	1.83 ± 0.059	2.09 ± 0.043
